Measurements: patent US5763209, “Methods and materials relating to the functional domains of DNA binding proteins” (Arch Development Corporation)

Key:
Egr-1 Δ284-330 = Egr-1 Δ284-330 (Mus musculus, UniProt P08046 SEQ:1-533, del284-330); test: cell_activity; HeLa, enhanced activation
Experimental: A series of deletion derivatives, each retaining the zinc finger domain, was assayed for transcriptional activity by transient transfection in HeLa and NIH3T3 cells (see FIG. 9). NIH3T3 and HeLa cells were maintained in Dulbecco's modified Eagle's medium (DMEM) with 10% calf serum. Cells were seeded at 8 ×10^5 cells per 100 mm plate the day before transfection. The media was replaced 2 to 6 hours prior to transfection by calcium phosphate-mediated precipitation. Each precipitate included 1 μg of the internal reference pON260, a CMV driven β-galactosidase plasmid (67), or 3 μg of PCH110, a SV40 driven β-galactosidase plasmid (Pharmacia), and remained on the cells for 16–20 hours. Forty-eight hours after transfection, cell extracts were prepared by freeze thaw lysis in 0.25M Tris-HCl 7.8 with protease inhibitors (1mM PMSF, 1 μg/ml Pepstatin A, and […] Leupeptin).
Deletion analyses were performed as described in Example 10, above. […] The enhanced activation seen with deletion A284–330 is consistent with the loss of a region important for repression or negative regulation.

Egr-1 (full length) = Egr-1 (full length) (Mus musculus, UniProt P08046 SEQ:1-533); test: cell_activity; activation in NIH3T3; dependent on Egr-1 sites
Egr-1 (full length), sequence (P08046 whole entry): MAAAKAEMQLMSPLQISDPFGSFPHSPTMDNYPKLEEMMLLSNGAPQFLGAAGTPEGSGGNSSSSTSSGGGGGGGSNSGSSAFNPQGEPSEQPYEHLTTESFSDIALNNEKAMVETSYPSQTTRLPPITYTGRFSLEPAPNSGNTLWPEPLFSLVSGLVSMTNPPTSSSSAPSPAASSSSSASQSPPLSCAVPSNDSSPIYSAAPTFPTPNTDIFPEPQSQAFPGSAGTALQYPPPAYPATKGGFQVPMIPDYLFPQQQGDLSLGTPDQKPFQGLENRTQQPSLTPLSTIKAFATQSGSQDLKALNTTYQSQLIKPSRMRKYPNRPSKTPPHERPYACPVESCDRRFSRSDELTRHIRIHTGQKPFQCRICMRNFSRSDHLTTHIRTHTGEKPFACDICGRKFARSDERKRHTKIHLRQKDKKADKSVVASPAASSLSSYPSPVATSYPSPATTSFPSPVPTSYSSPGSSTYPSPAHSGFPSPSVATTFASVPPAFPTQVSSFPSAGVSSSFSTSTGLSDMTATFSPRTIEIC

Egr-1 Δ284-330, sequence (P08046 other isoform, or with tags, fused parts or gaps del284-330 | mutant): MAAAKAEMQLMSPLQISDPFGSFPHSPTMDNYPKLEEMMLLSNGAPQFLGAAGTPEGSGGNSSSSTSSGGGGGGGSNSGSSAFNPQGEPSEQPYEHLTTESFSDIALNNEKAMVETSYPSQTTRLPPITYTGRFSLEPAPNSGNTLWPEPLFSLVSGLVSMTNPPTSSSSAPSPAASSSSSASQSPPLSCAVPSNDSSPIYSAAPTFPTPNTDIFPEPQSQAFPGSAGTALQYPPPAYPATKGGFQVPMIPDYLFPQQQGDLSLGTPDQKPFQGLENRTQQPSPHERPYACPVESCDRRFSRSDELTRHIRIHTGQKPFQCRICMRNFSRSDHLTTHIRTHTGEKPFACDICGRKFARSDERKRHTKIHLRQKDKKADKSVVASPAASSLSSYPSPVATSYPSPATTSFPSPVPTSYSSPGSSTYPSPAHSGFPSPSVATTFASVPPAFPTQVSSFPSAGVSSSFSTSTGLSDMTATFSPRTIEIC

B1: EBS1^3 foscat (3 Egr-1 sites in front of minimal c-fos promoter) (dsDNA)
DNA 1: CGCCCCCGC
DNA 2: GCGGGGGCG
For B1, the activity (Egr-1 Δ284-330) was ~5 fold of wild type and the activity (Egr-1 (full length)) was 10 fold.
